This is an account of results in patent EP4755403A1 (Jiangsu Hengrui Pharmaceuticals Co., Ltd., dated 2025).

Experiment [1] concerns the target T1, human PSMA (prostate specific membrane antigen) on tumor cells (human, UniProt Q04609 1-750).
T1 construct: whole, on cells; also called PSMA antigen; LNCaP (+++)
Nature of the experiment: flow cytometry on LNCaP cells, FITC anti-human IgG secondary. For orientation: Flow cytometry measures light scatter and fluorescence of single cells or particles in a stream.

For experiment [2], the target named is T1, human PSMA (prostate specific membrane …). Nature of the experiment: cell-based or functional assay.
The target of experiment [3] is T2, human PSMA-His (ACRO, PSA-H52H3) (human, UniProt Q04609 44-750).
T2 construct: Commercial protein; not shown: His tag
T2 sequence (Q04609 44-750 limits assumed): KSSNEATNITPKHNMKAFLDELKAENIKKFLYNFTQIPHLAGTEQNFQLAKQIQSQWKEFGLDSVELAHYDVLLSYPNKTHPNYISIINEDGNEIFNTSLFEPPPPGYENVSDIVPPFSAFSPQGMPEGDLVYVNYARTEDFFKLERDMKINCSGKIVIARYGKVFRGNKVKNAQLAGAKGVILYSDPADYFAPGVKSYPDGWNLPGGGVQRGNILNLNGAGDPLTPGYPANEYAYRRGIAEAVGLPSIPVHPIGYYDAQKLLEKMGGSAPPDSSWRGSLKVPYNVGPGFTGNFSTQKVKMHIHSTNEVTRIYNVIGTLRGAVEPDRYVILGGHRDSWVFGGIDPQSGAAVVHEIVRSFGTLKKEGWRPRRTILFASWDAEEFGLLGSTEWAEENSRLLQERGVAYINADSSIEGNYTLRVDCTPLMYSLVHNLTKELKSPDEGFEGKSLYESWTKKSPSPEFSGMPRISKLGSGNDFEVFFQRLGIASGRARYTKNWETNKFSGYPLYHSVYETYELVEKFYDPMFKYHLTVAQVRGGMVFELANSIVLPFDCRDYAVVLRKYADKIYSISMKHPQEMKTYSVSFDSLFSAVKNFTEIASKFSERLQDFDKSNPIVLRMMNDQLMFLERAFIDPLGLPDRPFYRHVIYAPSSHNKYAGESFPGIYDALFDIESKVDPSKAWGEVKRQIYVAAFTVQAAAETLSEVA
As to the kind of experiment: SPR (Biacore T200), antibody captured on Protein A chip, antigen flowed over, 1:1 model. A general note: SPR reads the build-up and loss of mass on a sensor chip optically.

The target in experiment [4] is T3, monkey PSMA-His (ACRO, PSA-C5247) (monkey (cynomolgus), UniProt A0A2K5VNZ0 44-750).
T3 construct: Commercial protein; also called cynomolgus monkey PSMA; not shown: His tag
The experiment is described as above.

In experiment [5] the target is T1, human PSMA (prostate specific membrane …). As to the kind of experiment: flow cytometry on LNCaP cells, FITC anti-human IgG secondary. This is another data set of the same source.
For experiment [6] the target is unchanged. As to the kind of experiment: flow cytometry on 22RV1 cells, FITC anti-human IgG secondary.
The target is the same in experiment [7]. Described as above. The source holds these as a separate data set.
In experiment [8] the target is T4, mouse PSMA-His (ACRO, PSA-M5245) (mouse, UniProt O35409 45-752).
T4 construct: Commercial protein; not shown: His tag
T4 sequence (O35409 45-752): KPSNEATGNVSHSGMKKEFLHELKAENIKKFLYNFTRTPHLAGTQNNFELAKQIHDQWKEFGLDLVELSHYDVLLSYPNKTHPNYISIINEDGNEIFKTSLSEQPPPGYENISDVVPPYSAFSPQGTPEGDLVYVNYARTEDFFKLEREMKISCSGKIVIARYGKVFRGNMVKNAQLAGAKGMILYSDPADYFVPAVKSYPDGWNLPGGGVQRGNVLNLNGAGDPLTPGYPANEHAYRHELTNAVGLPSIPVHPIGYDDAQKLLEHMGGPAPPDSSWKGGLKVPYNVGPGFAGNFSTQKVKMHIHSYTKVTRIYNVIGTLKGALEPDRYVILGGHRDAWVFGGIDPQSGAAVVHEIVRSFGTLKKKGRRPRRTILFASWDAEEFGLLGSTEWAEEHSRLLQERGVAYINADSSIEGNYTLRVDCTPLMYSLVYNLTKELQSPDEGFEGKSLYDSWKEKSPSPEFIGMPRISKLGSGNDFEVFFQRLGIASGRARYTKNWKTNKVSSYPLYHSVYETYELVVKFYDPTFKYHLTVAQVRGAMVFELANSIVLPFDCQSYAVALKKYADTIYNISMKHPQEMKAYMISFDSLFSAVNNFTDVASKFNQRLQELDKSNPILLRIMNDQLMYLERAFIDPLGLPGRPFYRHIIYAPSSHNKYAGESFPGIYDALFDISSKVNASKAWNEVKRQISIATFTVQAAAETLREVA
As to the kind of experiment: SPR (Biacore T200), antibody captured on Protein A chip, antigen flowed over.

Experiment [9] has as its target T1, human PSMA (prostate specific membrane …). Nature of the experiment: cell-based or functional assay. The source holds these as a separate data set.

T1 sequence (Q04609 whole entry): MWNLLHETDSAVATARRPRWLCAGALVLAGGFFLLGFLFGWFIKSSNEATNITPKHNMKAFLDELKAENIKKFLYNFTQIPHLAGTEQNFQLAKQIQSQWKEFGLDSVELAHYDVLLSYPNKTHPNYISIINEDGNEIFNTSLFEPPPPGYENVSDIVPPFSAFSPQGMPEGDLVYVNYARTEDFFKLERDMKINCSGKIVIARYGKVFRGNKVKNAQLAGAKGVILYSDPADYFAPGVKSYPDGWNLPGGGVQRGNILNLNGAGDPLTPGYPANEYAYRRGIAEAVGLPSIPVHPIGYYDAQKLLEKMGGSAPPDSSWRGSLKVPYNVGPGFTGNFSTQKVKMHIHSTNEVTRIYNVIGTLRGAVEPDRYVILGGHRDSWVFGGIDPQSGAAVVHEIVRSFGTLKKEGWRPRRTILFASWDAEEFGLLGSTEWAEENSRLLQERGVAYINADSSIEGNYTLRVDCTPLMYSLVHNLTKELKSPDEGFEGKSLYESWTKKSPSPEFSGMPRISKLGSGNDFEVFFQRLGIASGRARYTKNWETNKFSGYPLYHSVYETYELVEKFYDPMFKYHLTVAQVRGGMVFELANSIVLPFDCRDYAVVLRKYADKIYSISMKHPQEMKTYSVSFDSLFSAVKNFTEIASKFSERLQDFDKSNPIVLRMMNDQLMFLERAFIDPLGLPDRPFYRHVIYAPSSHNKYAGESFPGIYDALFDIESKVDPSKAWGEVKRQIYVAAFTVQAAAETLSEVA

B1: P19 (19L2H2) (antibody, human IgG1, kappa, V domains shown)
VH: EVKLVESGGGLVQPGGSLRLSCAASGFTFSDYYMAWVRQAPGKGLEWVANINYDGSSTYYLDSLKSRFTISRDNAKNSLYLQMNSLRAEDTAVYYCARGGDYWDAMDYWGQGTTVTVSS
VL: DIQMTQSPSSLSASVGDRVTITCRASQDISKYLNWYQQKPGKAPKLLIYYTSSLHSGVPSRFSGSGSGTDYTLTISSLQPEDFATYYCQQGNRLPRTFGGGTKVEIKR
notes: Humanized anti-PSMA antibody from mouse mAb19-1 (hu19-1 VH2 + hu19-1 VL2), human IgG1 / kappa constant regions; also called antibody P19
As a reminder, the EC50 is the concentration at which the effect is half-maximal. By Kd is commonly meant the equilibrium constant for the complex coming apart. What is called koff is the rate constant with which the complex falls apart. What is called kon is the rate constant with which the complex forms. Turning to B1, the concentration giving a half-maximal response (EC50) turned out to be 0.305 nM in experiment [1], 2.09 nM in [5], 0.637 nM in experiment [6] and 0.0719 nM in experiment [7]. Further, in [2], the “DT3C endocytosis assay on LNCaP cells, IC50” value was 0.25 nM. Moreover, the Kd in [3] was 1.3 nM; in [4] it was 5.08 nM. This molecule also gave a koff in experiment [3] of 7.92e-05 s⁻¹. For the same molecule, in experiment [3], the kon stood at 61100 M⁻¹ s⁻¹. The binding result in [8] is “no binding”.

B2: ADC-1 (P19-9-A, n = 5.55) (antibody, human IgG1, kappa, V domains shown)
VH: B1 VH
VL: B1 VL
modifications: drug-linker 9-A coupled via sulfhydryl groups on cysteine; mean n = 5.55 per antibody (positions not stated)
B2 came in with an EC50 in experiment [1] of 0.442 nM. For the same molecule, in experiment [9], the “killing of 22RV1 (+) cells, CellTiter-Glo, IC50” value worked out at 29.5 nM and the “killing of LNCaP (+++) cells, CellTiter-Glo, IC50” value was found to be 8.52 nM. Besides, in experiment [7], the EC50 came out at 0.114 nM.

B3: ADC-2 (P19-9-A, n = 7.41) (antibody, human IgG1, kappa, V domains shown)
VH: B1 VH
VL: B1 VL
modifications: drug-linker 9-A coupled via sulfhydryl groups on cysteine; mean n = 7.41 per antibody (positions not stated)
B3 had an EC50 in experiment [1] of 0.307 nM. In [9], the “killing of 22RV1 (+) cells, CellTiter-Glo, IC50” value is 6.92 nM and the “killing of LNCaP (+++) cells, CellTiter-Glo, IC50” value was 2.83 nM. This molecule yielded an EC50 in [7] of 0.0812 nM.

B4: H-AB-P1 (AB-PG1-XG1-006) (antibody, V domains shown)
VH: QVQLVESGGGVVQPGRSLRLSCAASGFAFSRYGMHWVRQAPGKGLEWVAVIWYDGSNKYYADSVKGRFTISRDNSKNTQYLQMNSLRAEDTAVYYCARGGDFLYYYYYGMDVWGQGTTVTVSS
VL: DIQMTQSPSSLSASVGDRVTITCRASQGISNYLAWYQQKTGKVPKFLIYEASTLQSGVPSRFSGGGSGTDFTLTISSLQPEDVATYYCQNYNSAPFTFGPGTKVDIK
Turning to B4, the “DT3C endocytosis assay on LNCaP cells, IC50” value in [2] was determined as 2.71 nM.
